The text below walks through data of US8273705B2, “Conversion of apoptotic proteins” (The Burnham Institute, priority 2002, dated 2012).

“Also recorded” adds a separate entry of the source.

Experiment [1] relates to 293T cells. Put plainly: Confocal microscopy of mitochondrial targeting in 293T cells. The format is cell-based, human. The procedure: Subcellular localization assays—Cells were seeded onto cover-slips in 6-well plates overnight, then transiently transfected with GFP-fusion expression plasmids. After 16 hours, cells were washed with PBS and fixed in 4% paraformaldehyde. For mitochondrial staining, cells were then incubated with anti-Hsp60 goat IgG (Santa Cruz, USA), followed by anti-goat IgG conjugated with Cy3 (Sigma). For cyt c staining, cells were incubated with monoclonal anti-cyt c IgG (PharMingen), followed by anti-mouse IgG conjugated with Cy5 (Amersham). Fluorescent images were collected and analyzed using a MRC-1024 MP laser-scanning confocal microscope (Bio-Rad). Subcellular fractionation assays were performed as described (Li, et al. 2000 Science 289:1159-1164). Briefly, cells (1×10^7 cells) suspended in 0.5 ml hypotonic buffer (5 mM Tris-HCl, pH 7.4, 5 mM KCl, 1.5 mM MgCl2, 0.1 mM EGTA, pH 8.0, and 1 mM DTT) were homogenized and cell extracts were centrifuged at 500×g for 5 min. The resulting supernatant was centrifuged at 10,000×g for 30 min at 4° C. to obtain the HM fraction. HM fraction was resuspended in 100 μl lysis buffer (10 mM Tris, pH 7.4, 150 mM NaCl, 1% Triton X-100, 5 mM EDTA, pH 8.0) for immunoblotting analysis.
A. confocal microscopy—First an experiment was performed to determine whether the deletion mutant TR3/ΔDBD targets mitochondria via its interaction with Bcl-2. In confocal microscopy analysis, GFP-TR3/ΔDBD and Bcl-2 were transfected into 293T cells alone or together. […] Bcl-2, TR3/ΔDBD and mitochondria (Hsp60) were visualized using confocal microscopy and the three images were overlaid.

For experiment [2], the target named is T1, Bcl-2 (Homo sapiens, UniProt P10415).
T1 construct: expressed in transfected cells; host or cells: HEK293T
T1 sequence (P10415 whole entry): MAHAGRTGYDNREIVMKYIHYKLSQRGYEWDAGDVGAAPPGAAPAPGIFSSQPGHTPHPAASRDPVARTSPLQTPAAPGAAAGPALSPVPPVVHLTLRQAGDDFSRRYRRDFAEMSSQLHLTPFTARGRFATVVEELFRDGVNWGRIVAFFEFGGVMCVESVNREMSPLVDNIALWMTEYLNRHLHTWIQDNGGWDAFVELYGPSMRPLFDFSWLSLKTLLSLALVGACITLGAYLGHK
Put plainly: Co-IP assay of TR3 mutants with Bcl-2 in HEK293T cells. Particulars: GFP fusions co-transfected with Bcl-2 in HEK293T cells. It is filed as binding. How it is done:
TR3/Bcl-2 interaction assays—Reporter gene assays using NurRE-tk-CAT in CV-1 cells, and GST pull-down assay were described previously (Li, et al. 2000 Science 289, 1159-1164). For the mammalian two-hybrid assays, CV-1 cells were co-transfected with pcDNA-Gal4TAD-TR3 or pcDNA-Gal4TAD-TR3/ΔDBD and pcDNA-Gal4DBD-Bcl-2/ΔTM along with a luciferase reporter gene driven by four copies of the Gal4-binding site. The cells were harvested and reporter gene activity was measured. For Co-IP assays, HEK293T cells were transiently transfected with various expression plasmids using a modified calcium phosphate precipitation method (Wu et al, 1997) in the presence of caspase inhibitors (zVAD-fmk) to prevent degradation of TR3 protein due to apoptosis. Cells were suspended in lysis buffer (50 mM Tris-HCl, PH7.4; 150 mM NaCl; 20 mM EDTA; 1% NP-40; 1 mM PMSF; 50 μg/ml Leupeptin; […]; 0.1 mM Na3VO4; and 1 mM DTT). Cells extracts were cleared by incubation with the Protein A/G plus Agarose beads (Santa Cruz) and then incubated with appropriate antibody and 30 μl of Protein A or G plus Agarose beads overnight at 4° C. Beads were then washed and boiled in Laemmli gel-loading solution before performing SDS-PAGE/immunoblotting using the following polyclonal or monoclonal antibodies: monoclonal mouse anti-GFP (Medical and Biological Laboratories), monoclonal mouse anti-HA (Roche Molecular Biochemicals), monoclonal mouse anti-FLAG (Sigma), monoclonal mouse anti-Myc (Santa Cruz), polyclonal rabbit anti-TR3 (Active Motif), or monoclonal mouse anti-Bcl-2 (Santa Cruz). Immunoreactive products were detected by chemiluminescence with an enhanced chemiluminescence system (ECL) (Amersham).
TR3/ΔDBD, which can constitutively reside on mitochondria, was also analyzed by co-immunoprecipitation (Co-IP) assay for its interaction with Bcl-2. GFP-TR3/ΔDBD was transfected into human embryonic kidney cell line 293T alone or together with a Bcl-2 expression vector. The expressed GFP-TR3/ΔDBD mutant protein as then precipitated by using either anti-Bcl-2 antibody or control IgG and detected by western blotting using anti-GFP antibody. The same membranes were also blotted with anti-Bcl-2 antibody to determine precipitation specificity and efficiency. Input represents 10% of total cell extract used in the precipitation assays.
Several TR3 mutants were analyzed to determine the domain of TR3 which interacts with Bcl-2. The TR3 mutants are schematically represented in FIG. 1. A Co-IP assay was performed, as described above. […] Cell extracts were prepared and incubated with anti-Bcl-2 antibody or control IgG for Co-IP assays. Lysates were immunoprecipitated by using either polyclonal rabbit anti-Bcl-2 antibody or control IgG. Cell lysates and immunoprecipitates were examined by immunoblotting using anti-GFP antibody. The same membranes were also blotted with anti-Bcl-2 antibody (Santa Cruz) to determine IP specificity and efficiency. […] This Co-IP was specific because Bcl-2 co-transfection was necessary. […] Thus, the DC1 region in the TR3 LBD is involved in the Bcl-2 interaction.
To further determine the interaction of DC1 with Bcl-2, a region of hydrophobic amino acids ([…]—SEQ ID NO: 1) was deleted from TR3/ΔDBD, and the resulting mutant (TR3/ΔDBD/Δ471-488) was analyzed for its interaction with Bcl-2. TR3/ΔDBD/[…], with eighteen amino acids from 471 to 488 in the DC1 region deleted from TR3/ΔDBD, TR3/ΔDBD/I483A (with Ile483 replaced with Ala) and TR3/ΔDBD/L487A (with Leu487 replaced with Ala) were analyzed for their interaction with Bcl-2 by in vivo Co-IP assay as described above.

B1: TR3/ΔDBD: TR3 mutant with the DNA binding domain removed; used as GFP fusion (protein)
chain: MPCIQAQYGTPAPSPGPRDHLASDPLTPEFIKPTMDLASPEAAPAAPTALPSFSTFMDGYTGEFDTFLYQLPGTVQPCSSASSSASSTSSSSATSPASASFKFEDFQVYGCYPGPLSGPVDEALSSSGSDYYGSPCSAPSPSTPSFQPPQLSPWDGSFGHFSPSQTYLVLHRLQCARGFGDWIDSILAFSRSLHSLLVDVPAFACLSALVLITDRHGLQEPRRVEELQNRIASCLKEHVAAVAGEPQPASCLSRLLGKLPELRTLCTQGLQRIFYLKLEDLVPPPPIIDKIFMDTLPF
modifications: left off: large carriers; small tags and cut ends
notes: used as GFP fusion
Consider B1, for which the results for the subcellular distribution result in experiment [1] (coexpressed with Bcl-2) and in experiment [1] (expressed alone) were “distribution pattern overlaid extensively with that of Hsp60” and “diffuse distribution pattern”, respectively. The “interaction with Bcl-2 (Co-IP)” value in experiment [2] is reported as “co-precipitated with Bcl-2”.

B2: TR3/ΔDBD/Δ471-488: TR3/ΔDBD with eighteen amino acids from 471 to 488 in the DC1 region deleted (protein)
chain: MPCIQAQYGTPAPSPGPRDHLASDPLTPEFIKPTMDLASPEAAPAAPTALPSFSTFMDGYTGEFDTFLYQLPGTVQPCSSASSSASSTSSSSATSPASASFKFEDFQVYGCYPGPLSGPVDEALSSSGSDYYGSPCSAPSPSTPSFQPPQLSPWDGSFGHFSPSQTYLVLFSRSLHSLLVDVPAFACLSALVLITDRHGLQEPRRVEELQNRIASCLKEHVAAVAGEPQPASCLSRLLGKLPELRTLCTQGLQRIFYLKLEDLVPPPPIIDKIFMDTLPF
modifications: left off: large carriers; small tags and cut ends
notes: TR3/ΔDBD with eighteen amino acids from 471 to 488 in the DC1 region deleted
Consider B2, for which, in experiment [1], the colocalization with mitochondria entry is on record as “failed to colocalize with mitochondria”. Also, in experiment [2], the “interaction with Bcl-2 (Co-IP)” value is given as “significantly impaired the interaction; also recorded: very weak interaction”.
